Assay: yeast display, Sf9 membrane polyspecificity reagent, FACS + sequencing; frameworks hold sequencing errors
Summary of the method: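 After 36–48 hours of galactose induction, yeast (Saccharomyces cerevisiae BJ5465) displaying a synthetic nanobody library were stained at 4 °C for 1 hour with 10% biotinylated, detergent-solubilized Sf9 membrane reagent. Streptavidin microbeads enriched the stained cells before FACS sorting into low and high (top ~1%) gates on anti-HA and streptavidin fluorescence. Each clone's polyreactivity label reflects its gate of origin.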

| Sequence | polyreactivity (PSR sort gate) |
| --- | --- |
| QVQLVESGGGLVQAGGSLRLSCAASGSIFVYNAMGWYRQAPGKERELVASITWSGGRTYYADSVKGRFTISRDNAKNTVYLQMNSLKPEDTAVYYCAADSPRGYDYWGQGTQVTVSS | high polyreactivity |
| QVQLVESGGGLVQAGGSLRLSCAASGSIFVYNAMGWYRQAPRKETEMVAAITSTGRTYYADSVKGRFTISRDNAKNTVYLKMNSLKPEDTGVYYCAATYVWSTLQYKTWQKLTHYGYWGQGTQVTVSS | high polyreactivity |
| QVQLVESGGGLVQAGGSLRLSCAASGSIFVYYAMGWYRQAPGKERELVAAISSGDGTNYADSVKGRFTISRDNAKNTVYLQMNSLKPEDTAVYYCNADLDSGYGSYDYWGQGTEVTVSS | low polyreactivity |
| QVQLVESGGGLVQAGGSLRLSCAASGSIFVYYAMGWYRQAPGKERELVATIRGSGGSTYYADSVKGRFTISRDNAKNTVYLQMNSLKPEDTAVYYCAATIKYGGRWYGSWGQGTQVTVSS | high polyreactivity |
| QVQLVESGGGLVQAGGSLRLSCAASGSIFVYYAMGWYRQSPGKERELVAAINWSGGSTYYADSVKGRFTISRDNAKKTVYLQMNSLKPEDSAVYYCNAYLSPYDYDYWGQGTQVTLSS | low polyreactivity |
| QVQLVESGGGLVQAGGSLRLSCAASGSIFVYYGMGWYRQAPGKERELVAAISSGGSTHYADSVKGRFTISRDNAKNTVYFQMNSLKPEDTAVYYCAADRFFWLRSYPRYYYWGQGTQVTVSS | low polyreactivity |
| QVQLVESGGGLVQAGGSLRLSCAASGSIFVYYTMGWYRQAPGKERELVAAISISGTSTYYADSVKGRFTNSRDNAKNTVYLQMNSLKPEDTAVYYCAADTYYGEDYWGQGTQVTVSS | low polyreactivity |
| QVQLVESGGGLVQAGGSLRLSCAASGSIFVYYVMGWYRQAPGKDRELVAAINSDGDGTYYADSVKGRFTISRDNAKNTVYLQMNSLKPEDTAVYYCNALNPKSYDYWGQGTQVTVSS | low polyreactivity |
| QVQLVESGGGLVQAGGSLRLSCAASGSIFWANAMGWYRQAPGKERELVAAISSSGGRTYYADSVKGRFTISRDNAKNTVYLQMNSLKPEDTAVYYCNKLRLAYYEQGDYWGQGTQVTVSS | high polyreactivity |
| QVQLVESGGGLVQAGGSLRLSCAASGSIFWFNAMGWYRQAPGKEREFVASISRSGGTTYYADSVKGRFTISRDNAKNTVYLQMNSLKPEDTAVYYCNARAYGNGLGTGYFGKHRYDYWGQGTQVTVSS | low polyreactivity |
| QVQLVESGGGLVQAGGSLRLSCAASGSIFWGNAMGWYRQAPGKERELVATISWSAGSTYYADSVKGRFTISRDNAMNTVYLQMNSLKPDDTAVYYCATDVRHSTLYYYWGQGTQVTVSS | low polyreactivity |
| QVQLVESGGGLVQAGGSLRLSCAASGSIFWGYAMGWYRQAPGKERELVATIRNRGGSTYYADSVKGRFTISRDNAKNTVYLQMNSLKPEDTAVYYCAARFPHRHYLLYTYDYWGQGTQVTVSS | low polyreactivity |
| QVQLVESGGGLVQAGGSLRLSCAASGSIFWKYAMGWYRQAPGKERELVAAISRSSSTTYYADSVKGRFTISRDNAKNTVYLQMNSLKPEDTAVYYCAADWRTKGYDSLGQGTQVTVSS | high polyreactivity |
| QVQLVESGGGLVQAGGSLRLSCAASGSIFWLYAMGCYRQAPGKERELVAGISQNGGSTTYADSVKGRFTISRDNAKNTVYFQMNSLKPEDTAVYYCAAKRYGPFKYGYWGQGTQVTVSS | high polyreactivity |
| QVQLVESGGGLVQAGGSLRLSCAASGSIFWLYAMGWYRQAPGKERELVAAIDSGDSTKYADSVKGRFTISRDNAKTTVYLQMNSLKPEDTAVYYCNASRRYHVRAPYDYWGQGTQVTLSS | low polyreactivity |
| QVQLVESGGGLVQAGGSLRLSCAASGSIFWLYAMGWYRQAPGKERELVAAITWSGGRTYYADSVKGRFTISRDTAKNTVYLQMNSLKPEDTAVYYCARRQWPWYSNPARGGKYDYWGQGTQVTVSS | low polyreactivity |

| Sequence | polyreactivity (PSR sort gate) |
| --- | --- |
| QVQLVESGGGLVQAGGSLRLSCAASGSIFWNNAMGWYRQAPGKERELVAAISKSGTRTYYADSVKGRFTISRDNAKNTFYLQMNSLKPEDTAVYYCAKDPYGRLQPRPRFGYWGQGTQVTVSS | high polyreactivity |
| QVQLVESGGGLVQAGGSLRLSCAASGSIFWNYAMGWYRQAPGKERELVASITSGGSTNYADSVKGRFTISRDNEKNTVYLQMNSLKQEDTAVYSCNTDDDSSYTGYYSWGQGTQVTVSS | low polyreactivity |
| QVQLVESGGGLVQAGGSLRLSCAASGSIFWPNAMGWYRQAPGKERELVASITRAGSTNYADSVKGRFTISRDNAQNTVYLQMNSLKPEDTAVYYCAAYFWGGYNYWGQGTQVTVSS | low polyreactivity |
| QVQLVESGGGLVQAGGSLRLSCAASGSIFWPNVMGWYRQAPGKDRELVAAIRSDGSTYYADSVKGRFTISRDNAKNTVYLQMNSLKPEDAAVYYCATKFFRQTIYRAKYNYWGQGTQVTVSS | low polyreactivity |
| QVQLVESGGGLVQAGGSLRLSCAASGSIFWPYAKGWYRQAPGKERELVAAISSSGTSTYYADSVKGRFTISRDNAKNTVYLQMNSLKPEDTAVYYCAKELFTYPYEYWGQGTQVTVSS | low polyreactivity |
| QVQLVESGGGLVQAGGSLRLSCAASGSIFWQNTMGWYRQAPGKERELVAAISWSGGRTYYADSVKGRFTISRDNAKNTVYLQMNSLKPEDTAVYYCAAAFSPGWWSRHTYDYDYWGQGTQVTVSS | high polyreactivity |
| QVQLVESGGGLVQAGGSLRLSCAASGSIFWRNAMGWYRQAPGKERELVAAISRVGSTNYADSVKGRFTISRDNAKNTVYLQMNSLKPQDTAVYYCAVDGGEFSSYGYWGQGTQVTVSS | low polyreactivity |
| QVQLVESGGGLVQAGGSLRLSCAASGSIFWRNMGWYRQAPGKERELVAAISYGSVSTYYADSVKGRFTISRDNAKNTVYLQMNSLKPEDTAVYYCAATLPGWYNEHDSWGLGTQVTVSS | low polyreactivity |
| QVQLVESGGGLVQAGGSLRLSCAASGSIFWRYAMGRYRQAPGKEREVVAAISGSGVRTSYADSVKGRFTISRDNAKNTVYLQMNSLKAEDTAVYYCATDIRSGRYYWGQGTQVTVSS | high polyreactivity |
| QVQLVESGGGLVQAGGSLRLSCAASGSIFWRYAMGWYRQAPGKERELVAAINYSTTRTYYADSVKGRFTISLDNAKNTVYLQMNSLKPEDTAVYYCAADSRVDEGEYWGQGTQVTVSS | high polyreactivity |
| QVQLVESGGGLVQAGGSLRLSCAASGSIFWSYAMGWYRQAPGKERELVAAITRSGGSTYYADSVKGRFTISRDNAKNTVYLQINSLKPEDTAVDYCNAATPYSWGYRRGYWGQGTQVTVSS | high polyreactivity |
| QVQLVESGGGLVQAGGSLRLSCAASGSIFWSYAMGWYRQAPGKERELVADSVKGRFTISRDNAKNTVYLQMNSLKPEDTAVYYCAADSPSAPVYLYDYWGQGTQVTVSS | low polyreactivity |
| QVQLVESGGGLVQAGGSLRLSCAASGSIFWSYAMGWYRQAPGKERELVASISRSTGRTRYADSVKGRFTISRDNAKNTVYLQMNSLKPEDTAVYYCAATRRAGFTTAKFDYWGQGTQVTVSS | high polyreactivity |
| QVQLVESGGGLVQAGGSLRLSCAASGSIFWTNAMGWYRQAPGKERELVAAIRVSTGSTYYADSVKGRFTISRDIAKNNVYLQMNSLKPEDTAVYYCNADLYIYEWYPALHSNDYWGQGTQVTVSS | low polyreactivity |
| QVQLVESGGGLVQAGGSLRLSCAASGSIFWVNAMGWYRQAPGKERELVAAITWSAGSTYYADSVKGRFTISRDNAKNTVYLQMNSLKPEDTAVYYCAAGGAWYYWTLDYWGQGTQVTVSS | low polyreactivity |
| QVQLVESGGGLVQAGGSLRLSCAASGSIFWVYAMGWYRQAPGKERELVAAISSGGSTNYADSVKGRFTISRDNAKNTVYLQMNSLKPEDTAVYYCAAVIRTVRERYGFWGQGTQVTVSS | high polyreactivity |

From the nanobody polyreactivity screen of Harvey et al. (2022)
